Test: soluble on expression in E. coli; label from the status in PepcDB or PDB records

Sequence	soluble on expression in E. coli
MVCDEKRYAIREVAEITGVKPVTLRAWQRRYNLVQPDRTEKGHRLFTDQDIEMIRQIQSWLAKGVAIGKVGALLQSGVSESESIPQPVGQLEECETLLTALAALQRSKAEQIIATVLKEYPLSVMQAQFVQPVTEALERVKGPLRSLQIGLFRTLMLSKLAFILDAENKAAVKGKCLCISLDEAGSLNAWLWALAWAENGHQVTLLEAVDDIRGLLENPGLAQYQILALHAHRALPAAQQSALASLQQQFGEQCVLSNVLQQLQS	not soluble
QYAPQTQSGRTSIVHLFEWRWVDIALECERYLGPKGFGGVQVSPPNENIVVTNPSRPWWERYQPVSYKLCTRSGNENEFRDMVTRCNNVGVRIYVDAVINHMCGSGAAAGTGTTCGSYCNPGSREFPAVPYSAWDFNDGKCKTASGGIESYNDPYQVRDCQLVGLLDLALEKDYVRSMIADYLNKLIDIGVAGFRIDASKHMWPGDIKAVLDKLHNLNTNWFPAGSRPFIFQEVIDLGGEAIKSSEYFGNGRVTEFKYGAKLGTVVRKWSGEKMSYLKNWGEGWGFMPSDRALVFVDNHDNQRGHGAGGSSILTFWDARLYKIAVGFMLAHPYGFTRVMSSYRWARNFVNGEDVNDWIGPPNNNGVIKEVTINADTTCGNDWVCEHRWREIRNMVWFRNVVDGQPFANWWDNGSNQVAFGRGNRGFIVFNNDDWQLSSTLQTGLPGGTYCDVISGDKVGNSCTGIKVYVSSDGTAQFSISNSAEDPFIAIHAESKL	soluble
SLDTTRPLSWDFQSQLMSNLKILYCLNMLKLSNWYFGGIMKVYGLFGINENAINDFIENHIKTFTIINALNLETVKNLKEGDLVFITSTLREDLRNGTEGILGRVINVSLVPQMINGFEEKEIIAGRVQLEMLGFAKCVKYESIHVEITFRMY	not soluble
MGSDKIHHHHHHMRLPPIDLSRENTFGEISYESGGQYGPIRGDYLAFIIVHLGTLKIEADETVLQLEAGHCALSLTRDSYLTTIAPETLTHISWCDGRPLNAAWLYKERHKYAPFINASTQVQTLMQLGVDLGIGDRDGRGGLREALTNTLLNAYIYEAEVVAEERPIPQTILQARRFLDENFAADVSIERVAQQVRVSPQYLVSAFKKHLGMTPARYLWRCRLDYGAHLLQRSGLSVSEIAYQVGYKNPYHFSRQIKLAFDCSPTELREKMLNG	not soluble
MTIIAGLPVEYNDRFIRGIAVFAPWRKTPGNYHQSHGACLGRRSRTITVVDEQPQGMDMDPTCSLFTTGQCLGEPDLLASARRLQFFSHQYSIAVLMANARGNSALWDEYGRLIVRADRGSLLLVGQRSSQGWQGDIIPLR	not soluble
MSQTVHFQGNPVTVANVIPQAGSKAQAFTLVAKDLSDVSLSQYAGKRKVLNIFPSIDTGVCAASVRKFNQLATEVENTVVLCVSADLPFAQSRFCGAEGLSNVITLSTLRNNEFLKNYGVEIVDGPLKGLAARAVIVLDENDNVIFSQLVDEITHEPDYDAALNVLKA	not soluble
SSGLSESKQTHVHLRNVDAATLQIIITYAYTGNLAMNDSTVEQLYETACFLQVEDVLQRCREYLIKKINAENCVRLLSFADLFSCEELKQSAKRMVEHKFTAVYHQDAFMQLSHDLLIDILSSDNLNVEKEETVREAAMLWLEYNTESRSQYLSSVLSQIRIDALSEVTQRAWFQGLPPNDKSVVVQGLYKSMPKFFKPRLGMTKEEMMIFIEASSENPCSLYSSVCYSPQAEKVYKLCSPPADLHKVGTRCNS	soluble
MSLEQNFIRLYQDSFREHWALPALTNYDTKESYTYGEMAADIARRHLLFERIGLKPGDKVALLGKDSAEWCMAFMSVITYGAIIVPVLPDFNAADAASIVTHSDAKYLFVSDKIWETMDPSQLLLLCGAVSIRDYTVFLDRTEGGLLSQEVEGLSRSFSEHYPSGFTAEDIRYAEVSNDDLILLNYTSGTTGFSKGVMLRANNLAGNVTYVKDRDIMFRGETILCFLPLAHTYSCAFNFLTPLTIGVHVYILGKIPSPLTLIKAFADVRPSFVIMVPLIIEKLYHKAIAPKIKTPLIKFLLRLPVLKKVIHKSIRSKLIESFGGNFRQIIIGGAALNDEVAHFLYRIGFPLTVGYGMTECGPLISYEDHSLWLPGSCGKSLSIMEVRIDHSGQERHSDSGDVGEIQVRGENVCLGYYKNAELTAELFTPDGWMRTGDLGTIDSLGNIFIKGRSKTMLLGSNGQNIYPEEIESKINNLSYVLESIVTERDGRLIALIVPDRQAIEHKGISPDQAWAYIERSRAELNGQVGAYEKITAFVRHDEEFEKTPKHSIKRFLYTEGHHHHHH	soluble
MAHHHHHHMDAKQRESIEELKEQLRGLEEALLIQEKVMQQRNQVILSLSSSIADAENSIGESKEGLKKAEESLEEAIRSNTIAHTERLVLQEEATKYSERDEYLNELSEADAGLNAAEAQVKDLVIQINDLSREPQNKNALQRVTLVRLISMLNDLHASLKHSVQCVPHEEDNRAREVLKAIRELSRERERTFGHCLRKKREIMGVMELKKQRTDEILLESKKNVALLRDIHEKTTLDAVEKIQKERNLLQEELENIKRANQLLQDTLGSTECLCDTKGSDSASTPASISMNVASCQSTDVQKEREHLREYLRHLEEKVTQLRSTTDELRESVGSQMEKNTLKLKDLRHQVRSKQNETHRLENENRKLKSLCDSLASTLGPK	not soluble
MTDLTGILYIVATPIGNLQDITQRALETFAQVDLIAAEDTRHSGLLLSHYGIKKPFFALHDHNEQEKAHILVEKLKQGSNIALISDAGTPLISDPGFHLVRQCREAGIRVVPLPGACAAITALCASGIASDRFCFEGFLPAKSKARKDKLENIAEEDRTLIFYESTHRILDTLEDMQAVLGEERYIVLAREMTKTWETITGNTIKNLREWLLEDPNRTKGEMVLIVEGKPKSDNNDEISPQAVKALELIAEELPLKKAAAIVAELYGYKKNALYQFGLAHLEK	not soluble
MVKVYAPASSANMSVGFDVLGAAVTPVDGALLGDVVTVEAAETFSLNNLGRFADKLPSEPRENIVYQCWERFCQELGKQIPVAMTLEKNMPIGSGLGSSACSVVAALMAMNEHCGKPLNDTRLLALMGELEGRISGSIHYDNVAPCFLGGMQLMIEENDIISQQVPGFDEWLWVLAYPGIKVSTAEARAILPAQYRRQDCIAHGRHLAGFIHACYSRQPELAAKLMKDVIAEPYRERLLPGFRQARQAVAEIGAVASGISGSGPTLFALCDKPETAQRVADWLGKNYLQNQEGFVHICRLDTAGARVLEN	soluble
PLPIPPPPPDIQPLERYWAAHQQLRETDIPQLSQASRLSTQQVLDWFDSRLPQPAEV	soluble
MQSSKVVLLEPRTYSEAQGIADHLKGRRAVVINLQRMSTDQAVRIVDFLSGTVYAIGGDIQKIGPKTFMCTPENVDIVGAISELFGEEEETNIKRWLEHHHHHH	not soluble
MASEASVRLGVPPGRLWIQRPGIYEDEEGRTWVTVVVRFNPSRREWARASQGSRYEPSITVHLWQMAVHTRELLSSGQMPFSQLPAVWQLYPRRKYRAADSSFWEIADHGQIDSMEQLVLTYQPERKD	not soluble
MGSDKIHHHHHHMQLIPLAERMRPVLLQDVYGQQHLIGEGMVFRRFVEEGKIPSMILWGPPGVGKTTLAQLLAKTVGLPFYTLSAISSGVKEVREVIANAQTDGKAVLFIDEIHRFSKSQQDALLGAVEKGTIQLIGATTENPSFEVIPALLSRCQVYVLQPLSEEELVELMRSALKKDAYLKTRSVEIKEHDSLLRLSGGDARKLLNLLELVIDASGKDPIVITDAYVQKIAQKKVASYDKNGEMHYDIISAFIKSVRGSDPNAAVYWLARMIEGGEDVEFIARRLLILASEDVGNANPTALVMATTAFDAVRFIGWPESRIILSQVTTYLASSPKSNASYMAINEAQQLVRSHGDLPVPIHLRNAPTKLMKDLDYGKEYKYAHSYEANFVEQEYMPDKLAGKKIFDPGNNAREQELRTFLQKRWKEKYKY	not soluble
MGSDKIHHHHHHMKDSALRVGIYQGPEIPQSFKVYAENVWRHLPKQDIATIPFKDRKDLPKSADVLWDIRSGGGNPPPDFLLEHPLPPLVVTVHGFAPLSLNGWEYFRTLKGLIMSGQYAKHKRERWREVRTAVGSIIAVSAFVKDEAIRFTGVPADRIHVCHHGVDGNAFTPGPDTESEPYFFHVSNDEPRKNVGAIVRAFRQLRRHCRVQLVLKLPEESARNYEKIEGIRVLSGFLTTEELVHLYRHALAFIFPSLYEGFGLPILEAMACGCPVITSNVSACREIAGEAARTINPRNESELLEAMEILYRNPEERRARTAMGLRRALGFSWEESAKCHARVLYMTADRNAPVASPD	not soluble

Source: the DeepSol protein solubility set
